Literature values, collected in article PMC10766771.

System: His154
Experiment: other (pH dependence of the redox potential, electrochemistry)
Settings: oxidized [2Fe-2S] cluster, isolated fragment

For “Rieske [2Fe-2S] iron-sulfur protein (cytochrome bc1-type), isolated soluble fragment (Thermus thermophilus)”, the pKa is given as 7.8.
